According to PMC9482650, “Quantitative fragmentomics allow affinity mapping of interactomes” (Nature Communications, 2022):

B1: DFNB31, Q9P202 (peptide)
chain: FLVTEFNVML
B2: IGSF5, Q9NSI5 (peptide)
chain: PEKVSNTTVV
B3: SLC22A11, Q9NSA0 (peptide)
chain: EAVTVESTSL
B4: KCNB1, Q14721 (peptide)
chain: AHGSTRDQSI

Target: CASK, O14936
Assay: holdup assay
Design: key: below the threshold = too weak to quantify, mostly under pKd 3.1 to 4
Details: plain residues with an end cap or a label only (N-terminal biotin on a linker: ado-ado)

Chain of CASK, O14936 (O14936 487-570): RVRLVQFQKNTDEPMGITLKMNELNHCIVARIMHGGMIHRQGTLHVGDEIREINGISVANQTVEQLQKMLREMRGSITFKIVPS

| pKd | Binder |
| --- | --- |
| below the threshold | B1 |
| below the threshold | B2 |
| below the threshold | B3 |
| below the threshold | B4 |

Target: PDZRN4_1, Q6ZMN7
Assay: holdup assay
Design: key: below the threshold = too weak to quantify, mostly under pKd 3.1 to 4
Details: plain residues with an end cap or a label only (N-terminal biotin on a linker: ado-ado)

Chain of PDZRN4_1, Q6ZMN7 (Q6ZMN7 213-318): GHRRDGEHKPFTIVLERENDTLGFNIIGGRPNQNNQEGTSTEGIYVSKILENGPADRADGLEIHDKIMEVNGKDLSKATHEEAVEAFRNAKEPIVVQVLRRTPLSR

| pKd | Binder |
| --- | --- |
| below the threshold | B1 |
| below the threshold | B2 |
| 4.43 | B3 |
| below the threshold | B4 |

Target: T1, MPP6, Q9NZW5
T1 sequence (Q9NZW5 125-219, limits assumed, looked up): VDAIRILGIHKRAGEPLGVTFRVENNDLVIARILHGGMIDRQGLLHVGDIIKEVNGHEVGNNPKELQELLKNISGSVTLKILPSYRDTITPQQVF
Assay: holdup assay
Design: key: below the threshold = too weak to quantify, mostly under pKd 3.1 to 4
Details: plain residues with an end cap or a label only (N-terminal biotin on a linker: ado-ado)

| pKd | Binder |
| --- | --- |
| below the threshold | B1 |
| below the threshold | B2 |
| 3.95 | B3 |
| below the threshold | B4 |

Target: GIPC2, Q8TF65
Assay: holdup assay
Design: key: below the threshold = too weak to quantify, mostly under pKd 3.1 to 4
Details: plain residues with an end cap or a label only (N-terminal biotin on a linker: ado-ado)

Chain of GIPC2, Q8TF65 (Q8TF65 112-203): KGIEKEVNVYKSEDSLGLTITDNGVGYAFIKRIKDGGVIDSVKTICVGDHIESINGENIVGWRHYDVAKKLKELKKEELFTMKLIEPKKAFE

| pKd | Binder |
| --- | --- |
| below the threshold | B1 |
| below the threshold | B2 |
| below the threshold | B3 |
| below the threshold | B4 |

Target: PTPN3, P26045
Assay: holdup assay
Design: key: below the threshold = too weak to quantify, mostly under pKd 3.1 to 4
Details: plain residues with an end cap or a label only (N-terminal biotin on a linker: ado-ado)

Chain of PTPN3, P26045 (P26045 505-587): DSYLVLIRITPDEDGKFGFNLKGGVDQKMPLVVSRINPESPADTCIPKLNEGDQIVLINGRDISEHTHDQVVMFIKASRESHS

| pKd | Binder |
| --- | --- |
| 3.89 | B1 |
| below the threshold | B2 |
| 4.62 | B3 |
| 4.07 | B4 |

Target: NHERF4_1, Q86UT5-2
Assay: holdup assay
Design: key: below the threshold = too weak to quantify, mostly under pKd 3.1 to 4
Details: plain residues with an end cap or a label only (N-terminal biotin on a linker: ado-ado)

Chain of NHERF4_1, Q86UT5-2 (Q86UT5 other isoform, or with tags, fused parts or gaps): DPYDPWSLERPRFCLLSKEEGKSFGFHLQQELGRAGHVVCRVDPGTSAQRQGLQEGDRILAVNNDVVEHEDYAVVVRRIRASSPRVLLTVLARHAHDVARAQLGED

| pKd | Binder |
| --- | --- |
| 3.9 | B1 |
| below the threshold | B2 |
| 4.55 | B3 |
| 3.54 | B4 |

Target: T2, GRIP1_2, Q9Y3R0
T2 sequence (Q9Y3R0 145-248, limits assumed, looked up): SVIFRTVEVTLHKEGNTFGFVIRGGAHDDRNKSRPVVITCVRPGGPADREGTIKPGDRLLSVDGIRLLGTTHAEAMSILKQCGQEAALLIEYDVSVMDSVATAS
Assay: holdup assay
Design: key: below the threshold = too weak to quantify, mostly under pKd 3.1 to 4
Details: plain residues with an end cap or a label only (N-terminal biotin on a linker: ado-ado)

| pKd | Binder |
| --- | --- |
| below the threshold | B1 |
| below the threshold | B2 |
| below the threshold | B3 |
| below the threshold | B4 |

Target: MAGI2_5, Q86UL8
Assay: holdup assay
Design: key: below the threshold = too weak to quantify, mostly under pKd 3.1 to 4
Details: plain residues with an end cap or a label only (N-terminal biotin on a linker: ado-ado)

Chain of MAGI2_5, Q86UL8 (Q86UL8 915-1017): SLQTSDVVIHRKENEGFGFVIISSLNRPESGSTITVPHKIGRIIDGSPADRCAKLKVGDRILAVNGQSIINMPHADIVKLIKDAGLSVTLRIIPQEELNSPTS

| pKd | Binder |
| --- | --- |
| below the threshold | B1 |
| 3.64 | B2 |
| 4.45 | B3 |
| below the threshold | B4 |

Target: MAGI2_3, Q86UL8
Assay: holdup assay
Design: key: below the threshold = too weak to quantify, mostly under pKd 3.1 to 4
Details: plain residues with an end cap or a label only (N-terminal biotin on a linker: ado-ado)

Chain of MAGI2_3, Q86UL8 (Q86UL8 600-682): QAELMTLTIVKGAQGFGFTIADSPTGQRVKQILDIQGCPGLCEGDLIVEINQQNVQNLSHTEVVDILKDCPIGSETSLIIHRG

| pKd | Binder |
| --- | --- |
| below the threshold | B1 |
| 3.51 | B2 |
| below the threshold | B3 |
| below the threshold | B4 |

Target: T3, MPDZ_10, O75970
T3 sequence (O75970 1624-1722, limits assumed, looked up): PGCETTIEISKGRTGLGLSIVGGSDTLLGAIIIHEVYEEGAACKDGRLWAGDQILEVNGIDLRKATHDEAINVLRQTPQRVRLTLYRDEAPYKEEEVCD
Assay: holdup assay
Design: key: below the threshold = too weak to quantify, mostly under pKd 3.1 to 4
Details: plain residues with an end cap or a label only (N-terminal biotin on a linker: ado-ado)

| pKd | Binder |
| --- | --- |
| below the threshold | B1 |
| below the threshold | B2 |
| below the threshold | B3 |
| below the threshold | B4 |

Target: LDB3, O75112
Assay: holdup assay
Design: key: below the threshold = too weak to quantify, mostly under pKd 3.1 to 4
Details: plain residues with an end cap or a label only (N-terminal biotin on a linker: ado-ado)

Chain of LDB3, O75112 (O75112 1-94): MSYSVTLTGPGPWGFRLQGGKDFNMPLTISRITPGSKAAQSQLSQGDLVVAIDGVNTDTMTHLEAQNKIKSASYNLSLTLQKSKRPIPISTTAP

| pKd | Binder |
| --- | --- |
| 3.88 | B1 |
| below the threshold | B2 |
| below the threshold | B3 |
| below the threshold | B4 |

Target: MAGI3_2, Q5TCQ9
Assay: holdup assay
Design: key: below the threshold = too weak to quantify, mostly under pKd 3.1 to 4
Details: plain residues with an end cap or a label only (N-terminal biotin on a linker: ado-ado)

Chain of MAGI3_2, Q5TCQ9 (Q5TCQ9 398-503): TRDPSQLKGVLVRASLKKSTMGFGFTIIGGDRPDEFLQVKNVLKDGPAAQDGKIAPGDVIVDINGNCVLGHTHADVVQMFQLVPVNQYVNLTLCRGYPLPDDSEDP

| pKd | Binder |
| --- | --- |
| 3.66 | B1 |
| 4.44 | B2 |
| below the threshold | B3 |
| below the threshold | B4 |

Target: MAST1, Q9Y2H9
Assay: holdup assay
Design: key: below the threshold = too weak to quantify, mostly under pKd 3.1 to 4
Details: plain residues with an end cap or a label only (N-terminal biotin on a linker: ado-ado)

Chain of MAST1, Q9Y2H9 (Q9Y2H9 962-1065): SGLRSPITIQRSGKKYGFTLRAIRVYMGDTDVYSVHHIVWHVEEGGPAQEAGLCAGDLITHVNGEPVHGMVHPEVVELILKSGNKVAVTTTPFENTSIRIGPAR

| pKd | Binder |
| --- | --- |
| 3.89 | B1 |
| 4.53 | B2 |
| 5.07 | B3 |
| 3.69 | B4 |

Target: T4, RAPGEF6, Q8TEU7
T4 sequence (Q8TEU7 525-625, limits assumed, looked up): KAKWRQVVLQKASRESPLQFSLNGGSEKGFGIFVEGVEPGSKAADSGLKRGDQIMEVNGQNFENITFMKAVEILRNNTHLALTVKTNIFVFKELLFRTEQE
Assay: holdup assay
Design: key: below the threshold = too weak to quantify, mostly under pKd 3.1 to 4
Details: plain residues with an end cap or a label only (N-terminal biotin on a linker: ado-ado)

| pKd | Binder |
| --- | --- |
| below the threshold | B1 |
| below the threshold | B2 |
| below the threshold | B3 |
| 3.91 | B4 |

Target: IL16_1, Q14005
Assay: holdup assay
Design: key: below the threshold = too weak to quantify, mostly under pKd 3.1 to 4
Details: plain residues with an end cap or a label only (N-terminal biotin on a linker: ado-ado)

Chain of IL16_1, Q14005 (Q14005 210-306): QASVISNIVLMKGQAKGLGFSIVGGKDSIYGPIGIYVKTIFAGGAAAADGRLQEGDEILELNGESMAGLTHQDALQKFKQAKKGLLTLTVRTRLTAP

| pKd | Binder |
| --- | --- |
| below the threshold | B1 |
| below the threshold | B2 |
| below the threshold | B3 |
| below the threshold | B4 |

Target: T5, MPP7, Q5T2T1
T5 sequence (Q5T2T1 134-230, limits assumed, looked up): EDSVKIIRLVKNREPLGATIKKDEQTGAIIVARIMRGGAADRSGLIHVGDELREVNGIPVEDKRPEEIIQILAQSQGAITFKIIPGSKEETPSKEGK
Assay: holdup assay
Design: key: below the threshold = too weak to quantify, mostly under pKd 3.1 to 4
Details: plain residues with an end cap or a label only (N-terminal biotin on a linker: ado-ado)

| pKd | Binder |
| --- | --- |
| below the threshold | B1 |
| below the threshold | B2 |
| below the threshold | B3 |
| below the threshold | B4 |

Target: FRMPD2_3, Q68DX3
Assay: holdup assay
Design: key: below the threshold = too weak to quantify, mostly under pKd 3.1 to 4
Details: plain residues with an end cap or a label only (N-terminal biotin on a linker: ado-ado)

Chain of FRMPD2_3, Q68DX3 (Q68DX3 1073-1166): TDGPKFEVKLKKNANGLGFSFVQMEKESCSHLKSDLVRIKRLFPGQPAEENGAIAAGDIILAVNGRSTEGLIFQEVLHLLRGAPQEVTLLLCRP

| pKd | Binder |
| --- | --- |
| below the threshold | B1 |
| below the threshold | B2 |
| below the threshold | B3 |
| below the threshold | B4 |

Target: HTRA2, O43464
Assay: holdup assay
Design: key: below the threshold = too weak to quantify, mostly under pKd 3.1 to 4
Details: plain residues with an end cap or a label only (N-terminal biotin on a linker: ado-ado)

Chain of HTRA2, O43464 (O43464 355-458): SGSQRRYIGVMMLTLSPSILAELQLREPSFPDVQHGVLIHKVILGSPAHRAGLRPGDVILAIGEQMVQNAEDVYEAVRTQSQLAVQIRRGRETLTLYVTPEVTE

| pKd | Binder |
| --- | --- |
| below the threshold | B1 |
| below the threshold | B2 |
| below the threshold | B3 |
| below the threshold | B4 |

Target: FRMPD4, Q14CM0
Assay: holdup assay
Design: key: below the threshold = too weak to quantify, mostly under pKd 3.1 to 4
Details: plain residues with an end cap or a label only (N-terminal biotin on a linker: ado-ado)

Chain of FRMPD4, Q14CM0 (Q14CM0 67-160): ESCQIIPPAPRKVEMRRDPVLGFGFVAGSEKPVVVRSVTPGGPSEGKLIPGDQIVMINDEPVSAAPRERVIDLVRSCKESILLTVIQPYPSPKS

| pKd | Binder |
| --- | --- |
| 4.9 | B1 |
| below the threshold | B2 |
| 4.23 | B3 |
| below the threshold | B4 |

Target: T6, LRRC7, Q96NW7
T6 sequence (Q96NW7 1440-1537, limits assumed, looked up): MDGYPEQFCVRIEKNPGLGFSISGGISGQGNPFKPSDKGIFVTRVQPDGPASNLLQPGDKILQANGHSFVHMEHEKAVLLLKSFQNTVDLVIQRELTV
Assay: holdup assay
Design: key: below the threshold = too weak to quantify, mostly under pKd 3.1 to 4
Details: plain residues with an end cap or a label only (N-terminal biotin on a linker: ado-ado)

| pKd | Binder |
| --- | --- |
| 3.64 | B1 |
| below the threshold | B2 |
| below the threshold | B3 |
| below the threshold | B4 |

Target: T7, DFNB31_2, Q9P202
T7 sequence (Q9P202 274-371, limits assumed, looked up): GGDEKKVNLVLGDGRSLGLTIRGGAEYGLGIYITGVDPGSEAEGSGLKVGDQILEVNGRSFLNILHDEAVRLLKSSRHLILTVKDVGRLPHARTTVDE
Assay: holdup assay
Design: key: below the threshold = too weak to quantify, mostly under pKd 3.1 to 4
Details: plain residues with an end cap or a label only (N-terminal biotin on a linker: ado-ado)

| pKd | Binder |
| --- | --- |
| below the threshold | B1 |
| below the threshold | B2 |
| below the threshold | B3 |
| below the threshold | B4 |

Target: Inadl_2, Q8NI35
Assay: holdup assay
Design: key: below the threshold = too weak to quantify, mostly under pKd 3.1 to 4
Details: plain residues with an end cap or a label only (N-terminal biotin on a linker: ado-ado)

Chain of Inadl_2, Q8NI35 (Q8NI35 238-335): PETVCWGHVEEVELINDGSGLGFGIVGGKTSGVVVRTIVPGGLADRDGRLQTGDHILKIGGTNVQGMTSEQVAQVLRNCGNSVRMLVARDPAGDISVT

| pKd | Binder |
| --- | --- |
| below the threshold | B1 |
| below the threshold | B2 |
| below the threshold | B3 |
| below the threshold | B4 |

Target: DLG4_3, P78352
Assay: holdup assay
Design: key: below the threshold = too weak to quantify, mostly under pKd 3.1 to 4
Details: plain residues with an end cap or a label only (N-terminal biotin on a linker: ado-ado)

Chain of DLG4_3, P78352 (P78352 306-403): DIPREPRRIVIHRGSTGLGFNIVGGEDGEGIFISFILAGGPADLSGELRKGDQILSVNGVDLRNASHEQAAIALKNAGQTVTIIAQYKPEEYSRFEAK

| pKd | Binder |
| --- | --- |
| below the threshold | B1 |
| below the threshold | B2 |
| below the threshold | B3 |
| below the threshold | B4 |

Target: GRIP2_6, Q9C0E4
Assay: holdup assay
Design: key: below the threshold = too weak to quantify, mostly under pKd 3.1 to 4
Details: plain residues with an end cap or a label only (N-terminal biotin on a linker: ado-ado)

Chain of GRIP2_6, Q9C0E4 (Q9C0E4 648-740): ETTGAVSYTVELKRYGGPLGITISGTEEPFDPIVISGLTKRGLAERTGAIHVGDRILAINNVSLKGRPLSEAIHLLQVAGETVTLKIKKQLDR

| pKd | Binder |
| --- | --- |
| 4.06 | B1 |
| below the threshold | B2 |
| below the threshold | B3 |
| below the threshold | B4 |

Target: Inadl_4, Q8NI35
Assay: holdup assay
Design: key: below the threshold = too weak to quantify, mostly under pKd 3.1 to 4
Details: plain residues with an end cap or a label only (N-terminal biotin on a linker: ado-ado)

Chain of Inadl_4, Q8NI35 (Q8NI35 547-651): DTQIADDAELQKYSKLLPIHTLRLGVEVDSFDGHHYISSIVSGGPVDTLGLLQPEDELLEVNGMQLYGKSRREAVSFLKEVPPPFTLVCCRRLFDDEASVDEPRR

| pKd | Binder |
| --- | --- |
| below the threshold | B1 |
| below the threshold | B2 |
| below the threshold | B3 |
| below the threshold | B4 |

Target: T8, MPDZ_5, O75970
T8 sequence (O75970 695-796, limits assumed, looked up): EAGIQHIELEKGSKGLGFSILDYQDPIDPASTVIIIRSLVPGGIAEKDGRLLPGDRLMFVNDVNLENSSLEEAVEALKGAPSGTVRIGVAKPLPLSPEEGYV
Assay: holdup assay
Design: key: below the threshold = too weak to quantify, mostly under pKd 3.1 to 4
Details: plain residues with an end cap or a label only (N-terminal biotin on a linker: ado-ado)

| pKd | Binder |
| --- | --- |
| below the threshold | B1 |
| below the threshold | B2 |
| below the threshold | B3 |
| below the threshold | B4 |

Target: T9, GRIP1_7, Q9Y3R0
T9 sequence (Q9Y3R0 999-1096, limits assumed, looked up): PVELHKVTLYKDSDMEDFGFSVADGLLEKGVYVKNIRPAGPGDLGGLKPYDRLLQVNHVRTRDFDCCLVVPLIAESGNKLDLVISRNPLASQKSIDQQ
Assay: holdup assay
Design: key: below the threshold = too weak to quantify, mostly under pKd 3.1 to 4
Details: plain residues with an end cap or a label only (N-terminal biotin on a linker: ado-ado)

| pKd | Binder |
| --- | --- |
| below the threshold | B1 |
| below the threshold | B2 |
| below the threshold | B3 |
| 3.48 | B4 |

Target: T10, RADIL, Q96JH8
T10 sequence (Q96JH8 971-1071, limits assumed, looked up): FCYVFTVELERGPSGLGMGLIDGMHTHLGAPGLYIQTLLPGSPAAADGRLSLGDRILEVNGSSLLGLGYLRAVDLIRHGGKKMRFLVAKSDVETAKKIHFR
Assay: holdup assay
Design: key: below the threshold = too weak to quantify, mostly under pKd 3.1 to 4
Details: plain residues with an end cap or a label only (N-terminal biotin on a linker: ado-ado)

| pKd | Binder |
| --- | --- |
| 4.78 | B1 |
| 4.3 | B2 |
| below the threshold | B3 |
| below the threshold | B4 |
